This test has as its target αvβ3 integrin on rat smooth muscle cells (RSMC) (rat). Put plainly: cell-based or functional assay.

B1: peptide D2A, synthetic peptide of domain 2 of human uPAR (aa130-142) (peptide)
peptide: IQEGEEGRPKDDR
As for B1, the “stimulation of RSMC migration (Boyden chamber chemotaxis)” value amounted to 3 fold.

B2: peptide D2A-Ala (D2A with the two glutamic acids of GEEG changed into alanines) (peptide)
peptide: IQEGAAGRPKDDR
Regarding B2, the “IC50 of inhibition of VN-induced migration of RSMC (Boyden chamber chemotaxis)” value lay in the range of 0.01 to 0.02 pM.

Source of the values: patent publication US20080280833A1 (published 2008).
